Measurements as given in patent US20250188133A1, “CHIMERIC BACTERIOCINS AND METHOD FOR THE CONTROL OF PSEUDOMONAS” (priority 2022, published 2025).

Tests used:
Experiment in all cases: agar disc-diffusion assay
Assay type in all cases: cell-based
P. aeruginosa HP75 = details: strain HP75; 0.3, 3 and 30 μg of protein spotted on discs on CAA agar lawn, overnight
Outline: (§1)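 Overnight cultures in CAA medium were adjusted to OD595=1.0, diluted 100× and swabbed onto CAA agar (1.5%). Chimeric pyocins (0.3-30 μg) were spotted on 6 mm paper discs; plates were incubated overnight at 37° C and inhibition zones observed.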

P. aeruginosa PA14 = details: strain PA14; 0.3, 3 and 30 μg of protein spotted on discs on CAA agar lawn, overnight
Outline: as §1

P. aeruginosa A19 = details: strain A19; 0.3, 3 and 30 μg of protein spotted on discs on CAA agar lawn, overnight
Outline: as §1

P. aeruginosa EY76 = details: strain EY76; 0.3, 3 and 30 μg of protein spotted on discs on CAA agar lawn, overnight
Outline: as §1

P. aeruginosa BL77 = details: strain BL77; 0.3, 3 and 30 μg of protein spotted on discs on CAA agar lawn, overnight
Outline: as §1

P. aeruginosa BR79 = details: strain BR79; 0.3, 3 and 30 μg of protein spotted on discs on CAA agar lawn, overnight
Outline: as §1

P. aeruginosa ATCC 29260 = details: strain ATCC 29260; 0.3, 3 and 30 μg of protein spotted on discs on CAA agar lawn, overnight
Outline: as §1

P. aeruginosa NCTC 13921 = details: strain NCTC 13921; 0.3, 3 and 30 μg of protein spotted on discs on CAA agar lawn, overnight
Outline: as §1

P. aeruginosa HP7 = details: strain HP7; 0.3, 3 and 30 μg of protein spotted on discs on CAA agar lawn, overnight
Outline: as §1

P. aeruginosa Bu002 = details: strain Bu002; 0.3, 3 and 30 μg of protein spotted on discs on CAA agar lawn, overnight
Outline: as §1

P. aeruginosa Pr335 = details: strain Pr335; 0.3, 3 and 30 μg of protein spotted on discs on CAA agar lawn, overnight
Outline: as §1

P. aeruginosa HP1 = details: strain HP1; 0.3, 3 and 30 μg of protein spotted on discs on CAA agar lawn, overnight
Outline: as §1

P. aeruginosa BI80 = details: strain BI80; 0.3, 3 and 30 μg of protein spotted on discs on CAA agar lawn, overnight
Outline: as §1

P. aeruginosa HP6 = details: strain HP6; 0.3, 3 and 30 μg of protein spotted on discs on CAA agar lawn, overnight
Outline: as §1

P. aeruginosa NCTC 13437 = details: strain NCTC 13437; 0.3, 3 and 30 μg of protein spotted on discs on CAA agar lawn, overnight
Outline: as §1

P. aeruginosa ATCC 19660 = details: strain ATCC 19660; 0.3, 3 and 30 μg of protein spotted on discs on CAA agar lawn, overnight
Outline: as §1

P. aeruginosa HP40 = details: strain HP40; 0.3, 3 and 30 μg of protein spotted on discs on CAA agar lawn, overnight
Outline: as §1

P. aeruginosa UR78 = details: strain UR78; 0.3, 3 and 30 μg of protein spotted on discs on CAA agar lawn, overnight
Outline: as §1

P. aeruginosa HP52 = details: strain HP52; 0.3, 3 and 30 μg of protein spotted on discs on CAA agar lawn, overnight
Outline: as §1

P. aeruginosa PAO1 = details: strain PAO1; 0.3, 3 and 30 μg of protein spotted on discs on CAA agar lawn, overnight
Outline: as §1

P. aeruginosa HP41 = details: strain HP41; 0.3, 3 and 30 μg of protein spotted on discs on CAA agar lawn, overnight
Outline: as §1

P. aeruginosa 13-18499 = details: strain 13-18499; 0.3, 3 and 30 μg of protein spotted on discs on CAA agar lawn, overnight
Outline: as §1

[1] = system: P. aeruginosa Boston 41501 (ATCC 27853); details: strain Boston; 0.3, 3 and 30 μg of protein spotted on discs on CAA agar lawn, overnight
Outline: as §1

B1: S5-PmnH (protein)
chain: MSNDNEVPGSMVIVAQGPDDQYAYEVPPIDSAAVAGNMFGDLIQREIYLQKNIYYPVRSIFEQGTKEKKEINKKVSDQVDGLLKQITQGKREATRQERVDVMSAVLHKMESDLEGYKKTFTKGPFIDYEKQSSLSIYEAWVKIWEKNSWEERKKYPFQQLVRDELERAVAYYKQDSLSEAVKVLRQELNKQKALKEKEDLSQLERDYRTRKANLEMKVQSELDQAGSALPPLVSPTPEQWLERATRLVTQAIADKKQLQTTNNTLIKNSPTPLEKQKAIYNGELLVDEIASLQARLVKLNAETTRRRTEKELTPDEKAAYTDAVSFVSTANEQMLQKYGANLSKVAQDMQAEIAGKKVRSYAEAMATFEKISANPAMKLNALDTQAVVDALNALDKASFADNITRLGKAFGVVGKVVQAEAIREKTVSGFQTGDWKPLMLELEAMAVGTGAGILLATSMAFFFPVFASAAAGVVVVALMMAATAAYFDAAKVDEINNLILN
modifications: Chimeric S5-PmnH
With B1 the “Activity in agar disc-diffusion assay” value (P. aeruginosa HP75) was “** (activity detected with 3 μg of protein)”, the “Activity in agar disc-diffusion assay” value (P. aeruginosa PA14) was “*** (activity detected with 0.3 μg of protein)” and the “Activity in agar disc-diffusion assay” value (P. aeruginosa A19) was “*** (activity detected with 0.3 μg of protein)”. For the same molecule, the “Activity in agar disc-diffusion assay” value (P. aeruginosa EY76) was “*** (activity detected with 0.3 μg of protein)”, the “Activity in agar disc-diffusion assay” value (P. aeruginosa BL77) was “** (activity detected with 3 μg of protein)” and the “Activity in agar disc-diffusion assay” value (P. aeruginosa BR79) was “** (activity detected with 3 μg of protein)”. The “Activity in agar disc-diffusion assay” value (P. aeruginosa ATCC 29260) was “*** (activity detected with 0.3 μg of protein)”, the “Activity in agar disc-diffusion assay” value (P. aeruginosa NCTC 13921) was “*** (activity detected with 0.3 μg of protein)” and the “Activity in agar disc-diffusion assay” value (P. aeruginosa HP7) was “*** (activity detected with 0.3 μg of protein)”. The “Activity in agar disc-diffusion assay” value (P. aeruginosa Bu002) was “*** (activity detected with 0.3 μg of protein)”, the “Activity in agar disc-diffusion assay” value (P. aeruginosa Pr335) was “*** (activity detected with 0.3 μg of protein)” and the “Activity in agar disc-diffusion assay” value (P. aeruginosa HP1) was “*** (activity detected with 0.3 μg of protein)”. For the same molecule, the “Activity in agar disc-diffusion assay” value (P. aeruginosa BI80) was “*** (activity detected with 0.3 μg of protein)”, the “Activity in agar disc-diffusion assay” value (P. aeruginosa HP6) was “*** (activity detected with 0.3 μg of protein)” and the “Activity in agar disc-diffusion assay” value (P. aeruginosa NCTC 13437) was “* (activity detected only with 30 μg of protein)”. The “Activity in agar disc-diffusion assay” value (P. aeruginosa ATCC 19660) was “** (activity detected with 3 μg of protein)”, the “Activity in agar disc-diffusion assay” value (P. aeruginosa HP40) was “*** (activity detected with 0.3 μg of protein)” and the “Activity in agar disc-diffusion assay” value (P. aeruginosa UR78) was “*** (activity detected with 0.3 μg of protein)”. The “Activity in agar disc-diffusion assay” value (P. aeruginosa HP52) was “** (activity detected with 3 μg of protein)”, the “Activity in agar disc-diffusion assay” value (P. aeruginosa PAO1) was “*** (activity detected with 0.3 μg of protein)” and the “Activity in agar disc-diffusion assay” value (P. aeruginosa HP41) was “*** (activity detected with 0.3 μg of protein)”. The “Activity in agar disc-diffusion assay” value (P. aeruginosa 13-18499) was “** (activity detected with 3 μg of protein)” and the “Activity in agar disc-diffusion assay” value [1] was “*** (activity detected with 0.3 μg of protein)”.
